According to PMC10511116:

Biological target: ErbB2 (HER2), recombinant (human) (UniProt P04626)
Assay: ELONA
Conditions: every T is Nap-dU (5-[N-(1-naphthylmethyl)carboxamide]-2'-deoxyuridine, printed P); ELONA: ErbB2-coated plate, biotin-aptamer 1 h at room temp, wash 10 mM PBS, 0.05% Tween-20, pH 7.4 (binding buffer not stated); cells: DPBS, 4.5 g/L glucose …

ATGTTAGAGTTTGCCTGAGTGCCTCGCAAGGGCGTAACAA [ErbB2 aptamer]
Kd: 1.37 nM
